Numbering of substitutions follows the chain as printed. In names and notes the source's numbering stands.
Experiments:
[1] = target: T1, PfTrpA (α-subunit of tryptophan synthase from Pyrococcus furiosus) (Pyrococcus furiosus, UniProt Q8U094 1-248); assay: inferred from inhibition of enzyme activity on adding PfTrpA
T1 construct: Expressed in E. coli; Purified by Q HP HiTrap flow-through, ammonium sulfate precipitation and phenyl Sepharose chromatography; also called P. furiosus TrpA
T1 sequence (looked up): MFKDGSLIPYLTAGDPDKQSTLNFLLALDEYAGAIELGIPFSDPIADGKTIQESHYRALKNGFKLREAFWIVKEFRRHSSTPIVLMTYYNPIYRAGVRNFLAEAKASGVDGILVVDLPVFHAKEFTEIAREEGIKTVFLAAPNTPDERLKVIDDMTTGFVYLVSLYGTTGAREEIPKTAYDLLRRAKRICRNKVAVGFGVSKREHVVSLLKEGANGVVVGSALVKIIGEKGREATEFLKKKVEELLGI

[2] = target: T2, TmTrpB (wild-type β-subunit of tryptophan synthase from Thermotoga maritima)
T2 chain: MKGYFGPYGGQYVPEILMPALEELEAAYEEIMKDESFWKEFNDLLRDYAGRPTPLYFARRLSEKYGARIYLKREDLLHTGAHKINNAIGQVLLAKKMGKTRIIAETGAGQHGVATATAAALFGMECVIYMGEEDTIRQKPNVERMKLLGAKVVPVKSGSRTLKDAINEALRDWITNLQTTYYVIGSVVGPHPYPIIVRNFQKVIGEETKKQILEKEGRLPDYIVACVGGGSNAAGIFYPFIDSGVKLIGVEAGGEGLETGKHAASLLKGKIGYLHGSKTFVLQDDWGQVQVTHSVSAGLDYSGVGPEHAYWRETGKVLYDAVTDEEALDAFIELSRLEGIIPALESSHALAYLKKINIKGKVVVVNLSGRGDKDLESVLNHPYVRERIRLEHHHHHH

[3] = target: T3, PfTrpB (wild-type β-subunit of tryptophan synthase from Pyrococcus furiosus)
T3 chain: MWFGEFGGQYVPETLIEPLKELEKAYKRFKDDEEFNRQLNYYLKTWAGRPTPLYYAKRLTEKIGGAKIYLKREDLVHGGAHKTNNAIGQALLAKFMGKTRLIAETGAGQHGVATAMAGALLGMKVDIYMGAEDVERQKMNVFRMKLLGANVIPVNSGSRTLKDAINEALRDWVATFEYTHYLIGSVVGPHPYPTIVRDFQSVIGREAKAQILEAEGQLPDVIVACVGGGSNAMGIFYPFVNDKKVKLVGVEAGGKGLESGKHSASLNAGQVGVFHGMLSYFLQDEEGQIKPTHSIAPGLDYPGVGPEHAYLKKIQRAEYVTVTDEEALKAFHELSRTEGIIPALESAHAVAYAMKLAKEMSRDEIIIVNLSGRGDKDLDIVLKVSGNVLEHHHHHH

[4] = target: T4, PfTrpB^2G9 (PfTrpB T292S)
T4 chain: T3 chain with T292S

[5] = target: T5, PfTrpB^4D11 (PfTrpB E17G, I68V, T292S, F274S, T321A)
T5 chain: T3 chain with E17G, I68V, F274S, T292S, T321A

[6] = target: T6, PfTrpB^0B2 (PfTrpB P12L, E17G, I68V, T292S, F274S, T321A)
T6 chain: T3 chain with P12L, E17G, I68V, F274S, T292S, T321A

B1: PfTrpB^0B2 (PfTrpB P12L, E17G, I68V, T292S, F274S, T321A) (enzyme)
chain: T3 chain with P12L, E17G, I68V, F274S, T292S, T321A
notes: not shown: C-terminal his-tag from pET22(b)+
B1: binds [1].

B2: TmTrpA (α-subunit of tryptophan synthase from Thermotoga maritima) (protein)
chain: MKGFIAYIPAGFPDLETTRKILIALNELGITGVEIGVPFSDPVADGPVIQLAHSVALRNGVTIKKILEMLSEISVDYDLYLMSYLNPIVNYPEGKEKLLDELKKLGVKGLIIPDLPLREVKNVDIAYPIVPFVAPNTKDEEIDLINSVQAPFVYYISRYGVTGEREDLPFADHIKRVKERIKLPLFVGFGISRHEQVKKVWEIADGVIVGSALVRIMEENPKDEIPRKVVEKVKELLGK
For B2, the kcat (s^-1) of the TmTrpS complex [2] was 2.2 s⁻¹.

B3: PfTrpA (α-subunit of tryptophan synthase from Pyrococcus furiosus) (protein)
chain: T1 sequence (looked up)
For B3, the “increase in catalytic efficiency” value [3] was 12-fold increase in catalytic efficiency, the kcat change with TrpA [3] was 3.2 fold and the kcat change with TrpA [4] was 0.34 fold. It also gave a kcat change with TrpA [5] of 0.3 fold and a kcat change with TrpA [6] of 0.04 fold.
